The values that follow come from the nanobody polyreactivity screen of Harvey et al. (2022).

The series can be described thus: yeast display, Sf9 membrane polyspecificity reagent, FACS + sequencing; frameworks hold sequencing errors. Put shortly: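 Nanobodies came from a synthetic yeast display library in Saccharomyces cerevisiae BJ5465, induced with galactose for 36–48 hours and stained for 1 hour at 4 °C with 10% biotinylated, detergent-solubilized Sf9 membrane reagent. Cells were enriched on streptavidin microbeads and then FACS-sorted, with low and high (top ~1%) gates set on anti-HA fluorescence for expression and streptavidin fluorescence for reagent binding. Each polyreactivity label reflects the gate a clone came from. Genes were amplified by colony PCR, sequenced by MiSeq 2 × 250 and filtered by CDR length.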
As for “QVQLVESGGGLVQAGGSLRLSCAASGITFDSNAMGWYRQAPGKERELVAAISASGGRTYYADSVKGRFTISRDNAKNTVYLQMNSLKPEDTAVYYCNARYYVKHPLPYDYWGQGTQVTVSS”, the “polyreactivity (PSR sort gate)” value is given as “low polyreactivity”. With “QVQLVESGGGLVQAGGSLRLSCAASGITFDSYAMGWYRQAPGKERELVAAISYSGGSTYYADSVKGRFTISRDNAKNTVYLQMNSLKPDDTAVYYCAAASDDDYDYWGQGTKVTVSS” the entry was “low polyreactivity”; with “QVQLVESGGGLVQAGGSLRLSCAASGITFDTYDMGWYRQAPGKERELVAAISSSGGSTYYADSVKGRFTISRDNAKNTVYLQMNSLKPEDTAVYYCAAVLLDDDYSYYYWGQGTQVTVSS”, “low polyreactivity”. With “QVQLVESGGGLVQAGGSLRLSCAASGITFDVNAMGWYRQAPGKERELVAAITAGGNTYYADSVKGRFTISRDNAKNTVYLQLNSLKPEVTAVYYCATQSYYGFYDYDYWGQGTQVTVSS” the entry was “low polyreactivity”; with “QVQLVESGGGLVQAGGSLRLSCAASGITFDVYAMGWYRQAPGKERELVAAISGSGGSTYYADSVKGRFTISRDNAKNTVYLQMNSLKPEDTAVYYCAASGPDGQYLWYDYWGQGTQVTVSS”, “high polyreactivity”; with “QVQLVESGGGLVQAGGSLRLSCAASGITFDYYAMGWYRQAPGKERELVAAISWGGGSTYYADSVKGRFTISRDNAKNTVYLQMNSLKPEDTAVYYCAADIVSSPSSYVPPGDYWGQGSQVTVSS”, “low polyreactivity”. Regarding “QVQLVESGGGLVQAGGSLRLSCAASGITFDYYDMGWYRQAPGKERELVATITSDGSTTYADSVKGRFTISRDNAKNTVYLQMNSLKPEDTAVYYCAAALHIYSYFYITYDYWGQGTQVTVSS”, the “polyreactivity (PSR sort gate)” value is on record as “high polyreactivity”. On to “QVQLVESGGGLVQAGGSLRLSCAASGITFEGYAMGWFRPAPGKERELVAAIRSSGTSTYYADSVKGRFTISRDNAKTTVYLQMNSQKPVDTAVYYCNRARSSSRYDYWGQGTQVTVSS”, for which the “polyreactivity (PSR sort gate)” value is “low polyreactivity”. Turning to “QVQLVESGGGLVQAGGSLRLSCAASGITFEGYAMGWYRQAPGKEREFVAAITGSGSTTYYADSVKGRFTITRDNAKNTVYLQMNSLKPEDTAVYYCVAYVGSTYSAPEYYWGQGTQVTVSS”, the “polyreactivity (PSR sort gate)” value was “low polyreactivity”. The value for “QVQLVESGGGLVQAGGSLRLSCAASGITFEGYAMGWYRQAPGNEREFVAAITSTGTSTRYADSVKGRFTISRDNAKNTVYLQMNSLKPEDTAVYYCAATSHFLSWHLRYYWGQGTQVTVSS” was “high polyreactivity”; that for “QVQLVESGGGLVQAGGSLRLSCAASGITFEIYAMGWYRQAPGKERELVAAITWRGGSTYYADSVKGRFTISRDNAKNTVYLQMNSLKPDDTAVYYCAAEQYSGEDWGDYWGQGTQVTVSS” was “low polyreactivity”. The value for “QVQLVESGGGLVQAGGSLRLSCAASGITFEPYAMGWYRQAPGKEREFVADITWSGGSTYYADSVKGRFTISRDNAMNTGYLQMNSLKPEDTAVYYCAADGWTSYWSDYWGQGTQVTVSS” was “low polyreactivity”; that for “QVQLVESGGGLVQAGGSLRLSCAASGITFFAYAMGWYRQAPGKERELVAAISTDGGSTYYADSVKGRFTISRDNAKNTVYLQMNSLKPEDTAVYYCAAKQRYVRTRGMDYWGQGTQVTVSS” was “high polyreactivity”. For “QVQLVESGGGLVQAGGSLRLSCAASGITFFDNAMGWYRQAPGKERELVATITGGGASTYYADSVKGRFTISRDNAKNTVYLLMNSLKPEDTAVYYCAADYVDGVYLEYGYWGQGTQVTVSS”, the “polyreactivity (PSR sort gate)” value is “low polyreactivity”. With “QVQLVESGGGLVQAGGSLRLSCAASGITFFRYAMGWYRQAPGKERELVAAITTSGSSTFYADSVKGRFTISRDNAKNTVYLLMNSLKPEDTAVYYCAAVFRWARLYEYDYWGQGTQVTVSS” the entry was “high polyreactivity”; with “QVQLVESGGGLVQAGGSLRLSCAASGITFFRYTMGWYRQAPGKEREFVADISRSGDTTYYADSVKGRFTISRDNAKNSVYLQMNSLKPEDTAVYYCARLTRSGEYGYWGQGTQVTVSS”, “high polyreactivity”.

Turning to “QVQLVESGGGLVQAGGSLRLSCAASGITFFWYAMGWYRQAPGKERELVARITSDGSTSYADSVKGRFTISRDNAKNTVYLQMNSLKREDTAVYYCAADYSYIYQSWSGYENDYWGQGTQVTVSS”, the “polyreactivity (PSR sort gate)” value is recorded as “high polyreactivity”.

Take “QVQLVESGGGLVQAGGSLRLSCAASGITFGDNAMGWYRQAPGKERELVAAITLSDVDTYADSVKGRFTISRDNAKNTVYLQMNSLKPEDTAVYYCAADYDFFSSKRFDYWGQGTQVTVSS”: the “polyreactivity (PSR sort gate)” value was “low polyreactivity”. With “QVQLVESGGGLVQAGGSLRLSCAASGITFGFNAMGWYRQAPGKERELVAAITWSVGRTYYADSVKGRFTISRDTAKNTVYLQMNSLKPEDTAVYYCAKDFEAGDDYFAYDYWGQGTQVTVSS” the entry was “low polyreactivity”.

Regarding “QVQLVESGGGLVQAGGSLRLSCAASGITFGGNAMGWYRQATGKERELVAGINRSGVSTYYADSVKGRFTISRDNAKNTVYFQMNSLKPEDTAVYYCATGYFSWIYGYYYWGQGTQVTVSS”, the “polyreactivity (PSR sort gate)” value is given as “high polyreactivity”. With “QVQLVESGGGLVQAGGSLRLSCAASGITFGGYAMGWYRQAPGKERELVASIRSGSTTNYADSVKGRFTISRDNAKNTVYLQMNSLKPEDTAVYYCAARNFRNRYGYWGQGTQVTVSS” the entry was “high polyreactivity”; with “QVQLVESGGGLVQAGGSLRLSCAASGITFGIYVMGCYRQAPGKEREFVATMSRSDDNTYYADSVKGRFTISRDNAKNTVYLQRNSLKPEDTAVYYCAADGVISAWYSSRDDYWGQGTQVTVSS”, “low polyreactivity”.

Turning to “QVQLVESGGGLVQAGGSLRLSCAASGITFGNYAMYWVRQAPGKERELVAAINYSRGSTYYADSVKGRFTISRDNAKNTVYLQMNSLKPQDTAVYYCAADTYPASYDYWGQGTQVTVSS”, the “polyreactivity (PSR sort gate)” value is “high polyreactivity”.

As to “QVQLVESGGGLVQAGGSLRLSCAASGITFGRNTMGWYRQAPGKERELVAAIDSGGNTYADSVKGRFTISRDNAKNTVFLQMNSLKPEDTAVYYCAVDGGEFSSYGYWGQGTQVTVSS”, the “polyreactivity (PSR sort gate)” value is “low polyreactivity”.

Turning to “QVQLVESGGGLVQAGGSLRLSCAASGITFGRYALGWYRQAPGKERELVATITVNGGRTYYADSVKGRFTISRDNAKNTVYLQMNSLKPEDTAVYYCAAERRNSYVLLFKYNYWGQGTQVTVSS”, the “polyreactivity (PSR sort gate)” value is “low polyreactivity”. With “QVQLVESGGGLVQAGGSLRLSCAASGITFGRYAMGWYRQAPGKERELVAAISWSGGSTYYADSVKGRFTISRDNAKNTVYLQMNSLKPEDTAVYYCATRIRTVAYNYWGQGTQVTVSS” the entry was “high polyreactivity”. With “QVQLVESGGGLVQAGGSLRLSCAASGITFGSKVMGWYRQPPGKEWEFVAVINWSTGSTYYADSVKGRFTISRDNAKNTVYLQMNSLKPEDTAVYYCNTDSGNEWTSYDYWGQGTQVTVSS” the entry was “low polyreactivity”; with “QVQLVESGGGLVQAGGSLRLSCAASGITFGSYAMGWYRQAPGKERELVAAIRWRGGNTYYADSVKGRFTISRDNAKNTVYLQMNSLKPEDTAVYYCAARRYGYRYDQPYSNDYWGQGTLVTVSS”, “low polyreactivity”.

With “QVQLVESGGGLVQAGGSLRLSCAASGITFGSYAMGWYRQAPGKERELVAAITSGGGTNYADSVKGRFTISRDNAKNTVYLQMNSLKPEDTAVYYCAARYYYLGTRYGYWGQGTQVTVSS”, the “polyreactivity (PSR sort gate)” value is given as “low polyreactivity”. With “QVQLVESGGGLVQAGGSLRLSCAASGITFGVYGKGWYRQEPGKERELVAAISRTGGSTYYADSVKGRFTISRDNAKNTVYLQMNSLKPEDTAVYYCNARPVGRVIGDYWGQGTQVTVSS” the entry was “high polyreactivity”.
